Measurements: paper PMC10029098

Key:
[1] = target: PD1 (Homo sapiens), Q15116; test: competitive binding kinetics; conditions: modification not given
[2] = target: PD1 (Homo sapiens), Q15116; test: ELISA PD1/PDL1 blocking; conditions: modification not given

Sequence of PD1 (Homo sapiens), Q15116 (Q15116 25-170): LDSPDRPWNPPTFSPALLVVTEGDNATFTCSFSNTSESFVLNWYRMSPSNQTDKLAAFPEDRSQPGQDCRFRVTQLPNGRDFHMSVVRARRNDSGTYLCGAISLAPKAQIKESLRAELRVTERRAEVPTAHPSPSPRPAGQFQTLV

Ki [1] [nM]	IC50 [2] [nM]	Binder
41	290	RWVARRDYRFDMGFDYWVWE [hairpin 1e]
	3700	RWCARRDYRFDMGFDYWGWE [peptide 1c]
